{
  "source": "patent US20140072581A1",
  "key": {"[1]": {"target": "HER2 (UniProt P04626)", "test": "SPR; average of measurements with different directionality"}, "[2]": {"target": "HER2 (UniProt P04626)", "test": "SPR; storage -80 (fresh protein); SD 1.E-10; control row printed a second time"}, "[3]": {"target": "HER2 (UniProt P04626)", "test": "SPR; storage -80 (fresh protein); SD 1.E-10"}, "[4]": {"target": "HER2 (UniProt P04626)", "test": "SPR; storage 7 d RT; SD 1.E-10; control row printed a second time"}, "[5]": {"target": "HER2 (UniProt P04626)", "test": "SPR; storage 7 d RT; SD 1.E-10"}, "[6]": {"target": "Tissue factor (TF) (UniProt P13726)", "test": "SPR; average of measurements with different directionality"}, "[7]": {"target": "Tissue factor (TF) (UniProt P13726)", "test": "SPR; Fab captured on anti-hIgG chip, TF flowed over at 300 nM"}, "[8]": {"target": "Tissue factor (TF) (UniProt P13726)", "test": "SPR; storage 7 d RT; SD 2.E-11; control row printed a second time"}, "[9]": {"target": "Tissue factor (TF) (UniProt P13726)", "test": "SPR; storage 7 d RT; SD 2.E-11"}, "[10]": {"target": "CD3 on HBP-ALL (CD3+) cells (UniProt P07766)", "test": "live cell ELISA on HBP-ALL (CD3+) cells; OD450 grade at 1/60 dilution"}, "[11]": {"target": "CD19 on RAJI (CD19+) cells (UniProt P15391)", "test": "live cell ELISA on RAJI (CD19+) cells; legend: OD450 below 0.100 at 1/60 dilution, but higher dilutions positive (higher than neg control)"}},
  "data": [
    {"substance": "Fab 4D5 (control), variant 695", "values": [
      {"measurement": "Kd", "setting": "[1]", "value": 0.837, "unit": "nM"},
      {"measurement": "Kd", "setting": "[2]", "value": 0.6, "unit": "nM"},
      {"measurement": "Kd", "setting": "[3]", "value": 0.6, "unit": "nM"},
      {"measurement": "Kd", "setting": "[4]", "value": 0.8, "unit": "nM"},
      {"measurement": "Kd", "setting": "[5]", "value": 0.8, "unit": "nM"}
    ]},
    {"substance": "Fab D3H44 (control), variant 696", "values": [
      {"measurement": "Kd", "setting": "[6]", "value": 0.0515, "unit": "nM"},
      {"measurement": "Kd", "setting": "[7]", "value": 0.0152, "unit": "nM"},
      {"measurement": "Kd", "setting": "[8]", "value": 0.08, "unit": "nM"},
      {"measurement": "Kd", "setting": "[9]", "value": 0.08, "unit": "nM"}
    ]},
    {"substance": "Variant 506, control antibody that binds HER2, based on the sequence of Herceptin", "values": [
      {"measurement": "Kd", "setting": "[1]", "value": 0.527, "unit": "nM"}
    ]},
    {"substance": "teplizumab-hOKT3-CD3 FSA, variant 2177 (antibody)", "values": [
      {"measurement": "OD450 at 1/60 dilution", "setting": "[10]", "value": "> 2", "unit": "od"},
      {"measurement": "OD450 at 1/60 dilution", "setting": "[11]", "value": "< 0.1", "unit": "od"}
    ]}
  ]
}
